Each block holds one binder with its values, some of them ahead of it.
Experiments:
[1] = molecular target: T1, rHuman Notch-1/Fc Chimera, CF (R&D Systems Cat#3647-TK) (human, UniProt P46531 19-526); experiment: ECL Multispot (MSD), 10 nM Fab; blank of this row 204
T1 construct: Bought reagent; Fc part of the bought chimera not given

[2] = molecular target: T2, rHuman CD44/Fc Chimera, CF (R&D Systems Cat#3660-CD) (human, UniProt P16070 21-220); experiment: as above
T2 construct: Bought reagent; Fc part of the bought chimera not given

[3] = molecular target: T3, rHuman IGF-1 sR, (IGF-1 sR), CF (R&D Systems Cat#391-GR) (human, UniProt P08069 31-932); experiment: as above
T3 construct: Bought soluble receptor; also called insulin-like growth factor-1 soluble receptor

[4] = molecular target: T4, rHuman P-Cadherin/Fc Chimera, CF (R&D Systems Cat#861-PC) (human, UniProt P22223 108-654); experiment: as above
T4 construct: Bought reagent; Fc part of the bought chimera not given

[5] = molecular target: T5, rHuman Erythropoietin R/Fc Chimera, CF (R&D Systems Cat#963-ER) (human, UniProt P19235 25-250); experiment: as above
T5 construct: Bought reagent; also called EPO R; EPO R/Fc; Fc part of the bought chimera not given
T5 sequence (looked up): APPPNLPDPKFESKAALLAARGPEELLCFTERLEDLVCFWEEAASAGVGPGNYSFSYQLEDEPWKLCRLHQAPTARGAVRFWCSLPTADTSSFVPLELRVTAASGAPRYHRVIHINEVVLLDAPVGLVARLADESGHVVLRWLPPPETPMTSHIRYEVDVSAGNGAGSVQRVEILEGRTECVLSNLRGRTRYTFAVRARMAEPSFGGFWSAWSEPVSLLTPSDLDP

[6] = molecular target: T6, rHuman ErbB2/Fc Chimera, CF (R&D Systems Cat#1129-ER) (human, UniProt P04626 23-652); experiment: as above
T6 construct: Bought reagent; also called human epidermal growth factor 2 receptor; Fc part of the bought chimera not given

[7] = molecular target: T7, rHuman EGF R/Fc Chimera, CF (R&D Systems Cat#344-ER) (human, UniProt P00533 25-645); experiment: as above
T7 construct: Bought reagent; also called epidermal growth factor receptor; Fc part of the bought chimera not given

[8] = molecular target: T8, rHuman HGF R/c-MET/Fc Chimera, CF (R&D Systems Cat#358-MT/CF) (human, UniProt P08581 25-932); experiment: as above
T8 construct: Bought reagent; also called HGF R/Fc; hepatocyte growth factor receptor; Fc part of the bought chimera not given
T8 sequence (P08581 25-932, change not shown): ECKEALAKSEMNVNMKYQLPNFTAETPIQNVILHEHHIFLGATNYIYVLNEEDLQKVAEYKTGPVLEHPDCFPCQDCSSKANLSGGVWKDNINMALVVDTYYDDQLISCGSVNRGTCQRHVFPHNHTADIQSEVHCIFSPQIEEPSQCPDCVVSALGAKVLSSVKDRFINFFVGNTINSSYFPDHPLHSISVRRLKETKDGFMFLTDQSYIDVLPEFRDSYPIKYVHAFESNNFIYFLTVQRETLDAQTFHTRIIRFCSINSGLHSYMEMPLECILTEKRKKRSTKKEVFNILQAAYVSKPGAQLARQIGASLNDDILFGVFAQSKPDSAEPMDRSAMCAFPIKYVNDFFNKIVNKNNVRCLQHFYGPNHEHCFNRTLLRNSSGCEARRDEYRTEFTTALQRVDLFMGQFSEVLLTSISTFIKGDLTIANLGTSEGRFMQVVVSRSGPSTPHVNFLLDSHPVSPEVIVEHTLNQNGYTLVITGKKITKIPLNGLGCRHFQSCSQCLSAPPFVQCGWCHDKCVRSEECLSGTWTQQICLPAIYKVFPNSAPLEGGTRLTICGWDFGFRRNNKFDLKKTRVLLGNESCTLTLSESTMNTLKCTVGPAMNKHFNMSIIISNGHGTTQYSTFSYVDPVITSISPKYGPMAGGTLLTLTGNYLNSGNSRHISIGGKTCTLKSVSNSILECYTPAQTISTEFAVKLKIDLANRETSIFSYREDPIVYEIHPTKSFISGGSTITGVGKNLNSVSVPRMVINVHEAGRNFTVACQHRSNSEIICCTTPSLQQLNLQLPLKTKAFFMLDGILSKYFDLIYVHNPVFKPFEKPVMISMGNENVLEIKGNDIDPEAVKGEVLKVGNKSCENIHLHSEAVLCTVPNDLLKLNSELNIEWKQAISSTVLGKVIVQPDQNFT

[9] = molecular target: T1, rHuman Notch-1/Fc Chimera, CF (R&D …); experiment: ECL Multispot (MSD), 10 nM Fab; blank of this row 363
[10] = molecular target: T2, rHuman CD44/Fc Chimera, CF (R&D Systems …); experiment: as above
[11] = molecular target: T3, rHuman IGF-1 sR, (IGF-1 sR), CF (R&D …); experiment: as above
[12] = molecular target: T4, rHuman P-Cadherin/Fc Chimera, CF (R&D …); experiment: as above
[13] = molecular target: T5, rHuman Erythropoietin R/Fc Chimera, CF …; experiment: as above
[14] = molecular target: T6, rHuman ErbB2/Fc Chimera, CF (R&D …); experiment: as above
[15] = molecular target: T7, rHuman EGF R/Fc Chimera, CF (R&D …); experiment: as above
[16] = molecular target: T8, rHuman HGF R/c-MET/Fc Chimera, CF (R&D …); experiment: as above
[17] = molecular target: T1, rHuman Notch-1/Fc Chimera, CF (R&D …); experiment: ECL Multispot (MSD), 10 nM Fab; blank of this row 203
[18] = molecular target: T2, rHuman CD44/Fc Chimera, CF (R&D Systems …); experiment: as above
[19] = molecular target: T3, rHuman IGF-1 sR, (IGF-1 sR), CF (R&D …); experiment: as above
[20] = molecular target: T4, rHuman P-Cadherin/Fc Chimera, CF (R&D …); experiment: as above
[21] = molecular target: T5, rHuman Erythropoietin R/Fc Chimera, CF …; experiment: as above
[22] = molecular target: T6, rHuman ErbB2/Fc Chimera, CF (R&D …); experiment: as above
[23] = molecular target: T7, rHuman EGF R/Fc Chimera, CF (R&D …); experiment: as above
[24] = molecular target: T8, rHuman HGF R/c-MET/Fc Chimera, CF (R&D …); experiment: as above

ECL signal [1]: 283 | ECL signal [2]: 340 | ECL signal [3]: 213 | ECL signal [4]: 118 | ECL signal [5]: 343 | ECL signal [6]: 302 | ECL signal [7]: 394 | ECL signal [8]: 200 | ECL signal [9]: 376 | ECL signal [10]: 345 | ECL signal [11]: 361 | ECL signal [12]: 305 | ECL signal [13]: 494 | ECL signal [14]: 525 | ECL signal [15]: 467 | ECL signal [16]: 422
B1: Fab VH1-46_IGHD6-6*01_IGHJ1*01 S102A/S103P/S104F (APF) & L6_IGKJ1*01 (Fab, V domains shown)
VH: QVQLVQSGAEVKKPGASVKVSCKASGYTFTSYYMHWVRQAPGQGLEWMGIINPSGGSTSYAQKFQGRVTMTRDTSTSTVYMELSSLRSEDTAVYYCAREEYAPFSAEYFQHWGQGTLVTVSS
VL: not shown
notes: Tested as Fab made in E. coli; also called H:APF & L:wt; APF triple mutant

ECL signal [17]: 272 | ECL signal [18]: 244 | ECL signal [19]: 136 | ECL signal [20]: 178 | ECL signal [21]: 277 | ECL signal [22]: 314 | ECL signal [23]: 286 | ECL signal [24]: 235
B2: Fab VH1-46_IGHD6-6*01_IGHJ1*01 S102A/S103P/S104F H111S & L6_IGKJ1*01 (Fab, V domains shown)
VH: QVQLVQSGAEVKKPGASVKVSCKASGYTFTSYYMHWVRQAPGQGLEWMGIINPSGGSTSYAQKFQGRVTMTRDTSTSTVYMELSSLRSEDTAVYYCAREEYAPFSAEYFQSWGQGTLVTVSS
VL: not shown
notes: Fab format as for m1; also called APF H111S
